From patent US20200024322A1 (Eli Lilly, published 2020) come the findings set out here.

Changes are numbered by the printed parent chain.

T1: human GIP receptor (human, UniProt P48546 22-466)
T1 construct: whole, on cells; also called hGIPR; hGIP-R
T1 sequence (looked up): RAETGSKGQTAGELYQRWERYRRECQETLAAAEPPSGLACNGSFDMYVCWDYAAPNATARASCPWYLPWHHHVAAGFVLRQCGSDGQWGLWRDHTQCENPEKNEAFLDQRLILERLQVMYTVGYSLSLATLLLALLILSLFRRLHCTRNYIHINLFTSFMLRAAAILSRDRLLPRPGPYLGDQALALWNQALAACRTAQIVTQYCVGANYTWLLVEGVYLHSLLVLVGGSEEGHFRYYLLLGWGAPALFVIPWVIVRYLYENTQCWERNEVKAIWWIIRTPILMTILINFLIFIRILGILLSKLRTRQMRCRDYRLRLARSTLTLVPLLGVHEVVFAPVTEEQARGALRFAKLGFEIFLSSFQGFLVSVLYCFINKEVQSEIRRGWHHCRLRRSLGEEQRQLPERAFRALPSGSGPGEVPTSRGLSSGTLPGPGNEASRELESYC

B1: Example 215 (peptide)
peptide: YXEGTXTSDYSIXLDEKAQXEFIXYLIEGGPSSGAPPPS
modifications: Aib2; αMeF(2F)6; αMeL13; K17((2-[2-(2-Amino-ethoxy)-ethoxy]-acetyl)2-CO-(CH2)18-CO2H); Aib20; D-Glu24; C-terminal NH2
B2: Example 223 (peptide)
peptide: B1 peptide with X24E, Y25X
modifications: Aib2; αMeF(2F)6; αMeL13; K17((2-[2-(2-Amino-ethoxy)-ethoxy]-acetyl)2-(γ-Glu)-CO-(CH2)18-CO2H); Aib20; αMeY25; C-terminal NH2
B3: Example 218 (peptide)
peptide: B1 peptide with E16X
modifications: Aib2; αMeF(2F)6; αMeL13; Dap16; K17((2-[2-(2-Amino-ethoxy)-ethoxy]-acetyl)2-(γ-Glu)-CO-(CH2)18-CO2H); Aib20; D-Glu24; C-terminal NH2
B4: Example 224 (peptide)
peptide: B1 peptide
modifications: Aib2; αMeF(2F)6; Aib13; K17((2-[2-(2-Amino-ethoxy)-ethoxy]-acetyl)2-(γ-Glu)-CO-(CH2)18-CO2H); Aib20; D-Glu24; C-terminal NH2
B5: Example 222 (peptide)
peptide: B1 peptide with Y25X
modifications: Aib2; αMeF(2F)6; αMeL13; K17((2-[2-(2-Amino-ethoxy)-ethoxy]-acetyl)2-(γ-Glu)-CO-(CH2)18-CO2H); Aib20; D-Glu24; αMeY25; C-terminal NH2
B6: Example 214 (peptide)
peptide: B1 peptide
modifications: Aib2; αMeF(2F)6; αMeL13; K17((2-[2-(2-Amino-ethoxy)-ethoxy]-acetyl)2-CO-(CH2)16-CO2H); Aib20; D-Glu24; C-terminal NH2
B7: Example 226 (peptide)
peptide: B1 peptide with X13L
modifications: Aib2; αMeF(2F)6; K17((2-[2-(2-Amino-ethoxy)-ethoxy]-acetyl)2-(γ-Glu)-CO-(CH2)18-CO2H); Aib20; D-Glu24; C-terminal NH2
B8: Example 225 (peptide)
peptide: B1 peptide
modifications: Aib2; αMeF6; Aib13; K17((2-[2-(2-Amino-ethoxy)-ethoxy]-acetyl)2-(γ-Glu)-CO-(CH2)18-CO2H); Aib20; D-Glu24; C-terminal NH2
B9: Example 217 (peptide)
peptide: B1 peptide with E16X
modifications: Aib2; αMeF(2F)6; αMeL13; Dab16; K17((2-[2-(2-Amino-ethoxy)-ethoxy]-acetyl)2-(γ-Glu)-CO-(CH2)18-CO2H); Aib20; D-Glu24; C-terminal NH2
B10: Example 343 (peptide)
peptide: B1 peptide with X6F, E21A, E28A
modifications: Aib2; αMeL13; K17((2-[2-(2-Amino-ethoxy)-ethoxy]-acetyl)2-(γ-Glu)-CO-(CH2)18-CO2H); Aib20; D-Glu24; C-terminal NH2
B11: Example 216 (peptide)
peptide: B1 peptide
modifications: Aib2; αMeF(2F)6; αMeL13; K17((2-[2-(2-Amino-ethoxy)-ethoxy]-acetyl)2-(εK)-CO-(CH2)18-CO2H); Aib20; D-Glu24; C-terminal NH2
B12: Example 212 (peptide)
peptide: B1 peptide with E16K
modifications: Aib2; αMeF(2F)6; αMeL13; K17((2-[2-(2-Amino-ethoxy)-ethoxy]-acetyl)2-(γ-Glu)-CO-(CH2)18-CO2H); Aib20; D-Glu24; C-terminal NH2
B13: Example 230 (peptide)
peptide: B1 peptide with E16H
modifications: Aib2; αMeF(2F)6; αMeL13; K17((2-[2-(2-Amino-ethoxy)-ethoxy]-acetyl)2-(γ-Glu)-CO-(CH2)18-CO2H); Aib20; D-Glu24; C-terminal NH2
B14: Example 231 (peptide)
peptide: B1 peptide with E16K
modifications: Aib2; αMeF(2F)6; αMeL13; K17((2-[2-(2-Amino-ethoxy)-ethoxy]-acetyl)2-(γ-Glu)-CO-(CH2)16-CO2H); Aib20; D-Glu24; C-terminal NH2

T2 sequence (P47871 26-477): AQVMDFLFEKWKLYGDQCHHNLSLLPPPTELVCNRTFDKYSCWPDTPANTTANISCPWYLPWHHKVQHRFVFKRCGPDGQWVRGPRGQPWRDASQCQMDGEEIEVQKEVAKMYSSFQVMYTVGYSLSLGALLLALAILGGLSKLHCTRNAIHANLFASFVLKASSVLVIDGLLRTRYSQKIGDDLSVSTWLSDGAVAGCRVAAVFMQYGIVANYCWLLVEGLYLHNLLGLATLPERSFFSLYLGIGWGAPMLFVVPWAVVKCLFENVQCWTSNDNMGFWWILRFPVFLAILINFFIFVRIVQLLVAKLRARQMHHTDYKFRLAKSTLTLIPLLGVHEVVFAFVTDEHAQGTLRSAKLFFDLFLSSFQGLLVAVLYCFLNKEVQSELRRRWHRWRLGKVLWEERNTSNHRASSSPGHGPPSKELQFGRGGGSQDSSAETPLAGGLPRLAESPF

One experiment concerns the target T1, human GIP receptor. The experiment in a line: [125I]-GIP competition SPA, hGIPR membranes.
Turning to B1, the affinity corresponds to a Ki of 0.0666 nM.

Regarding B2, the affinity corresponds to a Ki of 0.0921 nM.

B3: the affinity corresponds to a Ki of 0.0593 nM. Compared with the last molecule, the Ki is about 1.6-fold lower.

For B4, affinity was put at a Ki of 0.0482 nM.

For B5, affinity was put at a Ki of 0.0495 nM.

B6: the Ki (commonly the dissociation constant of the complex between target and ligand, obtained from inhibition or displacement) is 0.0304 nM.

B7 gave a Ki of 0.0254 nM.

In turn, B8 had a Ki of 0.0622 nM.

On to B9, for which affinity was put at a Ki of 0.0376 nM.

With B10, the Ki stood at 0.0374 nM.

Regarding B11, affinity was put at a Ki of 0.0559 nM.

Molecule B12 returned a Ki of 0.0978 nM.

The molecule B13 came in with a Ki of 0.042 nM.

On to B14, for which affinity was put at a Ki of 0.0394 nM.

The next experiment has as its target T2, human glucagon receptor (human, UniProt P47871 26-477).
T2 construct: whole, on cells; also called hGcgR; GcgR
Put plainly: [125I]-Gcg competition SPA, hGcgR membranes.
Consider B1, for which the Ki was 75.2 nM.

B2: affinity was put at a Ki of 46.5 nM. This Ki lies about 1.6-fold lower than the previous one.

For B3, affinity was put at a Ki of 270 nM.

Turning to B4, the Ki came to 627 nM.

Molecule B5 gave a Ki of 71.3 nM.

In turn, B6 had a Ki of 126 nM.

Regarding B7, the Ki is 200 nM.

Consider B8, for which the affinity, expressed as Ki, was 714 nM.

The molecule B9 registered a Ki of 516 nM.

Regarding B11, affinity was put at a Ki of 45.2 nM.

Molecule B12 returned an inhibition constant Ki of 205 nM.

Molecule B13 registered a Ki of 494 nM.

For B14, the Ki was found to be 440 nM. This Ki and that of the molecule before are within 1.5-fold of each other.

The target in the next experiment is T3, human GLP-1 receptor (human, UniProt P43220 24-463).
T3 construct: whole, on cells; also called hGLP-1R; hGLP1R
The experiment in a line: [125I]-GLP-1 competition SPA, hGLP-1R membranes. In outline:
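Kᵢ values are geometric means (SEM) over replicates run on separate days, derived from IC₅₀ of four-parameter curve fits. Buffer: HEPES 25 mM pH 7.4 with CaCl₂ 2.5 mM, MgCl₂ 1 mM, bacitracin 0.1%, TWEEN-20 0.003%, EDTA-free protease inhibitors.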
B1 registered a Ki of 6.85 nM. That is a single-digit nanomolar value.

In turn, B2 had a Ki of 5.62 nM.

The molecule B3 showed a Ki of 2.54 nM.

For B4, the Ki stood at 6.86 nM.

In turn, B5 gave a Ki of 3.59 nM.

The molecule B6 yielded a Ki of 1.99 nM.

B7: the affinity, expressed as Ki, was 4.1 nM.

In turn, B8 had a Ki of 8.79 nM.

B9 displayed a Ki of 2.02 nM.

As to B10, the Ki worked out at 13.3 nM.

B11 had an inhibition constant (Ki) of 2.34 nM.

For the molecule B12, the affinity corresponds to a Ki of 2.76 nM.

Molecule B13 registered a Ki of 4.68 nM. This Ki is about 1.7-fold higher than that of the molecule before.

The molecule B14 registered a Ki of 3.03 nM.
